According to PMC1762332, “Catalases Are NAD(P)H-Dependent Tellurite Reductases” (PLoS ONE, 2006):

Substrate: O=[Te](O)O
Experiment: purified protein
Details: NADPH 10 mM (50 µl of 0.2 M in 1 ml), Tris-HCl pH 8.0 (50 mM), aerobic

B1: bovine liver catalase (Bos taurus) (protein)
chain: ADNRDPASDQMKHWKEQRAAQKPDVLTTGGGNPVGDKLNSLTVGPRGPLLVQDVVFTDEMAHFDRERIPERVVHAKGAGAFGYFEVTHDITRYSKAKVFEHIGKRTPIAVRFSTVAGESGSADTVRDPRGFAVKFYTEDGNWDLVGNNTPIFFIRDALLFPSFIHSQKRNPQTHLKDPDMVWDFWSLRPESLHQVSFLFSDRGIPDGHRHMNGYGSHTFKLVNANGEAVYCKFHYKTDQGIKNLSVEDAARLAHEDPDYGLRDLFNAIATGNYPSWTLYIQVMTFSEAEIFPFNPFDLTKVWPHGDYPLIPVGKLVLNRNPVNYFAEVEQLAFDPSNMPPGIEPSPDKMLQGRLFAYPDTHRHRLGPNYLQIPVNCPYRARVANYQRDGPMCMMDNQGGAPNYYPNSFSAPEHQPSALEHRTHFSGDVQRFNSANDDNVTQVRTFYLKVLNEEQRKRLCENIAGHLKDAQLFIQKKAVKNFSDVHPEYGSRIQALLDKYNEEKPKNAVHTYVQHGSHLSAREKANL
- Km: 0.9 mM
